Values belong to the substance of their own block, whether it stands above or below them.
Assays:
[1] = target: TGF-β2 (Homo sapiens) (UniProt P61812); settings: cited from earlier work
[2] = target: TGF-β1 (Homo sapiens) (UniProt P01137); settings: cited from earlier work
[3] = target: TGF-β3 (Homo sapiens) (UniProt P10600); settings: cited from earlier work
[4] = target: TGFR-3-ZP(ΔC) (mouse) (UniProt O88393); assay: SEC; analytical SEC of the ligand-free protein on Superdex 200 10/300, 4°C, 0.5 ml/min; apparent molecular weight against standards
[5] = target: P5-hZP (17mer peptide of human TGFR-3, residues 734-750) (human) (UniProt Q03167); assay: SPR; ProteOn XPR36; biotinylated peptides immobilised on neutravidin (300-600 RU), TGF-β2 as analyte; 25°C, HBS150 (10 mM HEPES pH 7.4, 150 mM NaCl, 3.4 mM EDTA, 0.005% Tween 20); kinetic fit 1:1 Langmuir with or without mass transfer; avidity of dimeric TGF-β2 expected
[6] = target: P2-hZP (C-terminus mimetic peptide of human TGFR-3, residues 737-788) (human) (UniProt Q03167); assay: as above
P2-hZP (C-terminus mimetic peptide of human TGFR-3, residues 737-788) (human), sequence (Q03167 737-788): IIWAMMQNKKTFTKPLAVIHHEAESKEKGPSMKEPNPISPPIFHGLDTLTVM

[7] = target: P4-mZP (17mer peptide of murine TGFR-3, residues 732-748) (mouse) (UniProt O88393); assay: as above
[8] = target: P1-mZP (C-terminus mimetic peptide of murine TGFR-3-ZP, residues 735-782) (mouse) (UniProt O88393); assay: as above
P1-mZP (C-terminus mimetic peptide of murine TGFR-3-ZP, residues 735-782) (mouse), sequence (O88393 735-782): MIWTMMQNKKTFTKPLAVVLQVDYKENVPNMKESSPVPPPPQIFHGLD

TGFR-3 membrane-proximal ectodomain C-terminal half of ectodomain, sequence (P26342 410-781): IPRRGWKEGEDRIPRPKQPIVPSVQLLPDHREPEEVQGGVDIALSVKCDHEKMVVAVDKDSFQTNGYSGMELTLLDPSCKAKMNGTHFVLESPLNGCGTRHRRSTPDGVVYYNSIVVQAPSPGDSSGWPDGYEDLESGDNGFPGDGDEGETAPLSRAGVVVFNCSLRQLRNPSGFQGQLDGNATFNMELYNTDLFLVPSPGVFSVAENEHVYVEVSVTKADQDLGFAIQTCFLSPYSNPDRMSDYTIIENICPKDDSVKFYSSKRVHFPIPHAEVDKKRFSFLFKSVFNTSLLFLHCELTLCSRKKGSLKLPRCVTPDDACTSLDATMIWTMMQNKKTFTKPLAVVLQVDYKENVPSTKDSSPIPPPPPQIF
TGF-β1 (Homo sapiens), sequence (P01137 279-390): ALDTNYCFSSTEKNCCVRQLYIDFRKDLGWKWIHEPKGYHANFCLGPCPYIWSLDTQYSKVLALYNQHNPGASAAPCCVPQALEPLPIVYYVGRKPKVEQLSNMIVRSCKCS
TGF-β3 (Homo sapiens), sequence (P10600 301-412): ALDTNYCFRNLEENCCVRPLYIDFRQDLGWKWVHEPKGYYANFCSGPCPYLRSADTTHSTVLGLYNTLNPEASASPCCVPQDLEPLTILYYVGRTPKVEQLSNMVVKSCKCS
TGF-β2 (Homo sapiens), sequence (P61812 303-414): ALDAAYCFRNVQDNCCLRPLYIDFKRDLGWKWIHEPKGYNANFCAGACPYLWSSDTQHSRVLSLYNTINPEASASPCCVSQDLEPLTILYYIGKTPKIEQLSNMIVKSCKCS

Substance: TGFR-3 membrane-proximal ectodomain C-terminal half of ectodomain (from UniProt P26342)
- Kd [1]: 2600 nM
- Kd [2]: 9700 nM
- Kd [3]: 5800 nM

- stoichiometry N [4]: 2
Substance: TGFR-3-ZP(ΔC) (from UniProt O88393 438-734) (domain or fragment)

- Kd [5]: 353 nM
- koff [5]: 0.029 s⁻¹
- kon [5]: 79000 M⁻¹ s⁻¹
- Kd [6]: 15 nM
- koff [6]: 0.044 s⁻¹
- kon [6]: 4.4e+06 M⁻¹ s⁻¹
- Kd [7]: 192 nM
- koff [7]: 0.02 s⁻¹
- kon [7]: 110000 M⁻¹ s⁻¹
- Kd [8]: 7.9 nM
- koff [8]: 0.029 s⁻¹
- kon [8]: 5.2e+06 M⁻¹ s⁻¹
Substance: human TGF-β2 (ligand)

— publication PMC3695229
